Test results published in paper PMC9868088.

What was measured:
[1] = WB abundance of GFP-β-catenin; conditions: glycan gained; control: GFP-β-catenin + individual aptamers T1 · AP3
[2] = WB abundance of endogenous β-catenin; conditions: glycan gained; control: individual aptamers T1 · bc339
[3] = WB phospho-specific antibody; conditions: glycan gained; control: GFP-β-catenin + individual aptamers T1 · AP3

Row | Protein | expression_or_secretion [2] | also measured
1 | β-catenin: NL1F DS aptamers (protein) parent chain: MATQADLMELDMAMEPDRKAAVSHWQQQSYLDSGIHSGATTTAPSLSGKGNPEEEDVDTSQVLYEWEQGFSQSFTQEQVADIDGQYAMTRAQRVRAAMFPETLDEGMQIPSTQFDAAHPTNVQRLAEPSQMLKHAVVNLINYQDDAELATRAIPELTKLLNDEDQVVVNKAAVMVHQLSKKEASRHAIMRSPQMVSAIVRTMQNTNDVETARCTAGTLHNLSHHREGLLAIFKSGGIPALVKMLGSPVDSVLFYAITTLHNLLLHQEGAKMAVRLAGGLQKMVALLNKTNVKFLAITTDCLQILAYGNQESKLIILASGGPQALVNIMRTYTYEKLLWTTSRVLKVLSVCSSNKPAIVEAGGMQALGLHLTDPSQRLVQNCLWTLRNLSDAATKQEGMEGLLGTLVQLLGSDDINVVTCAAGILSNLTCNNYKNKMMVCQVGGIEALVRTVLRAGDREDITEPAICALRHLTSRHQEAEMAQNAVRLHYGLPVVVKLLHPPSHWPLIKATVGLIRNLALCPANHAPLREQGAIPRLVQLLVRAHQDTQRRTSMGGTQQQFVEGVRMEEIVEGCTGALHILARDVHNRIVIRGLNTIPLFVQLLYSPIENIQRVAAGVLCELAQDKEAAEAIEAEGATAPLTELLHSRNEGVATYAAAVLFRMSEDKPQDYKKRLSVELTSSLFRTEPMAWNETADLGLDIGAQGEPLGYRQDDPSYRSFHSGGYGQDALGMDPMMEHEMGGHHPGADYPVDGLPDLGHAQDLMDGLPPGDSNQLAWFDTDL |  | expression_or_secretion [1]: increases
2 | β-catenin: NL8F100 (protein) parent chain: MATQADLMELDMAMEPDRKAAVSHWQQQSYLDSGIHSGATTTAPSLSGKGNPEEEDVDTSQVLYEWEQGFSQSFTQEQVADIDGQYAMTRAQRVRAAMFPETLDEGMQIPSTQFDAAHPTNVQRLAEPSQMLKHAVVNLINYQDDAELATRAIPELTKLLNDEDQVVVNKAAVMVHQLSKKEASRHAIMRSPQMVSAIVRTMQNTNDVETARCTAGTLHNLSHHREGLLAIFKSGGIPALVKMLGSPVDSVLFYAITTLHNLLLHQEGAKMAVRLAGGLQKMVALLNKTNVKFLAITTDCLQILAYGNQESKLIILASGGPQALVNIMRTYTYEKLLWTTSRVLKVLSVCSSNKPAIVEAGGMQALGLHLTDPSQRLVQNCLWTLRNLSDAATKQEGMEGLLGTLVQLLGSDDINVVTCAAGILSNLTCNNYKNKMMVCQVGGIEALVRTVLRAGDREDITEPAICALRHLTSRHQEAEMAQNAVRLHYGLPVVVKLLHPPSHWPLIKATVGLIRNLALCPANHAPLREQGAIPRLVQLLVRAHQDTQRRTSMGGTQQQFVEGVRMEEIVEGCTGALHILARDVHNRIVIRGLNTIPLFVQLLYSPIENIQRVAAGVLCELAQDKEAAEAIEAEGATAPLTELLHSRNEGVATYAAAVLFRMSEDKPQDYKKRLSVELTSSLFRTEPMAWNETADLGLDIGAQGEPLGYRQDDPSYRSFHSGGYGQDALGMDPMMEHEMGGHHPGADYPVDGLPDLGHAQDLMDGLPPGDSNQLAWFDTDL | increases | 
3 | β-catenin: NL1F30 (protein) parent chain: MATQADLMELDMAMEPDRKAAVSHWQQQSYLDSGIHSGATTTAPSLSGKGNPEEEDVDTSQVLYEWEQGFSQSFTQEQVADIDGQYAMTRAQRVRAAMFPETLDEGMQIPSTQFDAAHPTNVQRLAEPSQMLKHAVVNLINYQDDAELATRAIPELTKLLNDEDQVVVNKAAVMVHQLSKKEASRHAIMRSPQMVSAIVRTMQNTNDVETARCTAGTLHNLSHHREGLLAIFKSGGIPALVKMLGSPVDSVLFYAITTLHNLLLHQEGAKMAVRLAGGLQKMVALLNKTNVKFLAITTDCLQILAYGNQESKLIILASGGPQALVNIMRTYTYEKLLWTTSRVLKVLSVCSSNKPAIVEAGGMQALGLHLTDPSQRLVQNCLWTLRNLSDAATKQEGMEGLLGTLVQLLGSDDINVVTCAAGILSNLTCNNYKNKMMVCQVGGIEALVRTVLRAGDREDITEPAICALRHLTSRHQEAEMAQNAVRLHYGLPVVVKLLHPPSHWPLIKATVGLIRNLALCPANHAPLREQGAIPRLVQLLVRAHQDTQRRTSMGGTQQQFVEGVRMEEIVEGCTGALHILARDVHNRIVIRGLNTIPLFVQLLYSPIENIQRVAAGVLCELAQDKEAAEAIEAEGATAPLTELLHSRNEGVATYAAAVLFRMSEDKPQDYKKRLSVELTSSLFRTEPMAWNETADLGLDIGAQGEPLGYRQDDPSYRSFHSGGYGQDALGMDPMMEHEMGGHHPGADYPVDGLPDLGHAQDLMDGLPPGDSNQLAWFDTDL |  | other: Ser675 phosphorylation [3]: increases
4 | β-catenin: 3JB8F+12 (protein) parent chain: MATQADLMELDMAMEPDRKAAVSHWQQQSYLDSGIHSGATTTAPSLSGKGNPEEEDVDTSQVLYEWEQGFSQSFTQEQVADIDGQYAMTRAQRVRAAMFPETLDEGMQIPSTQFDAAHPTNVQRLAEPSQMLKHAVVNLINYQDDAELATRAIPELTKLLNDEDQVVVNKAAVMVHQLSKKEASRHAIMRSPQMVSAIVRTMQNTNDVETARCTAGTLHNLSHHREGLLAIFKSGGIPALVKMLGSPVDSVLFYAITTLHNLLLHQEGAKMAVRLAGGLQKMVALLNKTNVKFLAITTDCLQILAYGNQESKLIILASGGPQALVNIMRTYTYEKLLWTTSRVLKVLSVCSSNKPAIVEAGGMQALGLHLTDPSQRLVQNCLWTLRNLSDAATKQEGMEGLLGTLVQLLGSDDINVVTCAAGILSNLTCNNYKNKMMVCQVGGIEALVRTVLRAGDREDITEPAICALRHLTSRHQEAEMAQNAVRLHYGLPVVVKLLHPPSHWPLIKATVGLIRNLALCPANHAPLREQGAIPRLVQLLVRAHQDTQRRTSMGGTQQQFVEGVRMEEIVEGCTGALHILARDVHNRIVIRGLNTIPLFVQLLYSPIENIQRVAAGVLCELAQDKEAAEAIEAEGATAPLTELLHSRNEGVATYAAAVLFRMSEDKPQDYKKRLSVELTSSLFRTEPMAWNETADLGLDIGAQGEPLGYRQDDPSYRSFHSGGYGQDALGMDPMMEHEMGGHHPGADYPVDGLPDLGHAQDLMDGLPPGDSNQLAWFDTDL | increases | 
